Data published in patent publication US8613931B2, “Compounds for treating beta-amyloidoses” (Affiris AG, priority 2008, dated 2013).

Experiments:
[1] = test system: monoclonal antibody MV-001; experiment: In vitro binding assay (ELISA), parental antibody MV-001; design: species or system C57/Bl6 mice; settings: peptide-BSA on ELISA plate; OD halfmax, dilution factor 1:X of parental AB MV-001
Method: 1. In vitro binding assay (ELISA)
Peptides derived from Phage Display as well as variants thereof were coupled to BSA and bound to ELISA plates (1 μM; as indicated in the respective figures) and subsequently incubated with the monoclonal antibody that was used for the screening procedure to analyse binding capacity of identified peptides.

[2] = test system: monoclonal antibody MV-001; experiment: In vitro inhibition assay (ELISA), MV-001 binding to original epitope; design: species or system C57/Bl6 mice; settings: OD at 10 μg peptide compared to original peptide
Method: 2. In vitro inhibition assay (ELISA)
Different amounts of peptides (concentrations ranging from 10 μg to 0.08 μg; serial dilutions), derived from Phage Display were incubated with the monoclonal antibody that was used for the screening procedure. Peptides diminishing subsequent binding of the antibody to the original epitope coated on ELISA plates were considered as inhibiting in this assay.

[3] = target: monoclonal antibody MV-001; experiment: inhibition ELISA; competitor: coated original epitope p4371; settings: for Inhibition Capacity: scale: code
[4] = target: monoclonal antibody MV-001; experiment: ELISA, peptide-BSA coated, MV-001; settings: for Binding Capacity: scale: code

Row | Molecule | Binding Capacity [1] | Inhibition Capacity (code (weaker than original epitope)) [3] | Binding Capacity [4] | other results
1 | TPFRHTC [p4384] | – | – | – | Inhibition Capacity [2]: 1 (Weaker than original epitope (OD of 10 μg peptide below 3 times of original peptide))
2 | QPNLFYHC [p4713] | 1 (weak binding :<4000) | – | – | –
3 | QFKHDLC [p4391] | – | – | – | Inhibition Capacity [2]: 1 (Weaker than original epitope (OD of 10 μg peptide below 3 times of original peptide))
4 | LPFRHGC [p4388] | – | – | – | Inhibition Capacity [2]: 1 (Weaker than original epitope (OD of 10 μg peptide below 3 times of original peptide))
5 | TSFRHGC [p4382] | – | – | – | Inhibition Capacity [2]: 1 (Weaker than original epitope (OD of 10 μg peptide below 3 times of original peptide))
6 | EFLRHTLC [p4722] | 3 (strong binding :>20000) | – | – | –
7 | SAGSFRHC [p4710] | 3 (strong binding :>20000) | – | – | –
8 | GEMRHQPC [p4702] | 3 (strong binding :>20000) | – | – | –
9 | NELRHSTC [p4701] | 3 (strong binding :>20000) | – | – | –
10 | HEPLFSHC [p4719] | 1 (weak binding :<4000) | – | – | –
11 | EEFKYSC [p4393] | – | – | – | Inhibition Capacity [2]: 1 (Weaker than original epitope (OD of 10 μg peptide below 3 times of original peptide))
12 | SHFRHGC [p4389] | – | – | – | Inhibition Capacity [2]: 1 (Weaker than original epitope (OD of 10 μg peptide below 3 times of original peptide))
13 | ATPLFRHC [p4723] | 3 (strong binding :>20000) | – | – | –
14 | QELKRYYC [p4724] | 1 (weak binding :<4000) | – | – | –
15 | LHIPFRHC [p4726] | 3 (strong binding :>20000) | – | – | –
16 | EDWFFWHC [p4709] | 1 (weak binding :<4000) | – | – | –
17 | SAFRHHC [p4387] | – | – | – | Inhibition Capacity [2]: 1 (Weaker than original epitope (OD of 10 μg peptide below 3 times of original peptide))
18 | QDFRHYC [p4380] | – | – | – | Inhibition Capacity [2]: 1 (Weaker than original epitope (OD of 10 μg peptide below 3 times of original peptide))
19 | SEFSHSSC [p4712] | 3 (strong binding :>20000) | – | – | –

Row | Molecule | Binding Capacity [1] | Inhibition Capacity (code (weaker than original epitope)) [3] | Binding Capacity [4] | other results
20 | TPFRHTC [p4384] | – | 1 | 2 | –
21 | SEFKHGC [p4381] | – | 1 | 3 | –
22 | SAFRHHC [p4387] | – | 1 | 2 | –
23 | THTDFRHC [p4725] | – | 1 | 3 | –
24 | SHFRHGC [p4389] | – | 1 | 2 | –
25 | QDFRHYC [p4380] | – | 1 | 2 | –
26 | QFKHDLC [p4391] | – | 1 | 2 | –
27 | EEFKYSC [p4393] | – | 1 | 2 | –
28 | TSFRHGC [p4382] | – | 1 | 2 | –
29 | ILFRHGC [p4390] | – | 1 | 3 | –
30 | LPFRHGC [p4388] | – | 1 | 2 | –
31 | TSVFRHC [p4383] | – | 1 | 3 | –
32 | TSTEMWHC [p4754] | – | – | – | Binding Capacity (code (weak binding, OD halfmax 1:<4000)) [4]: 1
33 | SQFRHYC [p4385] | – | 1 | 2 | –
34 | LMFRHNC [p4386] | – | 1 | 3 | –
35 | NWFPHPC [p4392] | – | 1 | – | Binding Capacity (code (weak binding, OD halfmax 1:<4000)) [4]: 1
36 | TLHEFRHC [p4715] | – | – | 3 | Inhibition Capacity [3]: 2
37 | SPNQFRHC [p4707] | – | 1 | 3 | –

Further lines, with some results ahead:

Row | Binding Capacity [1] | Inhibition Capacity (code (weaker than original epitope)) [3] | Binding Capacity [4] | Molecule | other results
38 | 1 (weak binding :<4000) | – | – | TSTEMWHC [p4754] | –
39 | 3 (strong binding :>20000) | – | – | EELRHSVC [p4746] | Inhibition Capacity [2]: 1 (Weaker than original epitope (OD of 10 μg peptide below 3 times of original peptide))
40 | 3 (strong binding :>20000) | – | – | SNSEFRRC [p4743] | –
41 | 3 (strong binding :>20000) | – | – | HEFRHC [p4803] | Inhibition Capacity [2]: 2 (strong inhibition (as original epitope; OD of 10 μg peptide below 2 times of original peptide))
42 | 3 (strong binding :>20000) | – | – | SELRHSTC [p4744] | –
43 | 3 (strong binding :>20000) | – | – | SQSYFKHC [p4755] | –
44 | 1 (weak binding :<4000) | – | – | TPLMFWHC [p4733] | –
45 | 3 (strong binding :>20000) | – | – | NSSELRHC [p4752] | –
46 | 3 (strong binding :>20000) | – | – | QLFKHSPC [p4747] | –
47 | 3 (strong binding :>20000) | – | – | SNFRHSVC [p4749] | –
48 | 3 (strong binding :>20000) | – | – | THMEFRRC [p4745] | –
49 | 3 (strong binding :>20000) | – | – | APIQFRHC [p4750] | –
50 | – | – | 3 | APIQFRHC [p4750] | –
51 | – | 1 | 3 | ADHDFRHC [p4740] | –
52 | – | – | 2 | AEFMHSVC [p4739] | –
53 | – | – | 3 | HEFRHC [p4803] | Inhibition Capacity [3]: 2
54 | – | – | 3 | SNSEFRRC [p4743] | –
55 | – | – | 2 | IGFRHDSC [p4742] | –

Row | Binding Capacity [1] | Inhibition Capacity (code (weaker than original epitope)) [3] | Binding Capacity [4] | Molecule | other results
56 | – | – | 3 | SNFRHSVC [p4749] | –
57 | – | – | 3 | THMEFRRC [p4745] | –
58 | – | – | 3 | YEFRHAQC [p4748] | –
59 | – | – | 3 | SQSYFKHC [p4755] | –
60 | – | 1 | 3 | QSEFKHWC [p4738] | –
61 | – | – | 3 | TEFRHKAC [p4753] | Inhibition Capacity [3]: 2
62 | – | – | 3 | NSSELRHC [p4752] | –
63 | – | 1 | 3 | EELRHSVC [p4746] | –
64 | – | 1 | 3 | DEHPFRHC [p4730] | –
65 | – | – | 3 | QLFKHSPC [p4747] | –
66 | – | – | 2 | AYFPHTSC [p4751] | –
67 | – | – | 2 | AEFSHWHC [p4737] | –
68 | – | – | 3 | SELRHSTC [p4744] | –
69 | – | 1 | 3 | DGLLFKHC [p4741] | –
70 | – | 1 | 3 | SEFKHC [p4801] | –
71 | – | – | 3 | CSEFKH [p4800] | Inhibition Capacity [3]: 2
72 | – | – | 3 | CHEFRH [p4802] | Inhibition Capacity [3]: 2
